Results on 125 sequences are retold here after the supplement of paper PMC9112550, “Optimization of the antimicrobial peptide Bac7 by deep mutational scanning” (BMC Biology, 2022).

The series deals with Escherichia coli TOP10. The experiment in a line: shrunken log2 fold change of peptide-encoding DNA abundance (4.5 h post-induction vs induction); higher = less antimicrobial activity (less host growth inhibition). To be noted: time post-induction: 4.5 h; library: site-saturation at positions 5, 18, 19, 20.
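Further: peptides expressed intracellularly from a pBAD plasmid library in pooled LB shake-flask culture, induced with 0.3% L-arabinose, DNA abundance read by NGS, three biological replicates, DESeq2 with apeglm shrinkage.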

Turning to RRIRKRPPRLPRPRPRPYMTPRP, the “shrunken log2 fold change” value was -0.0252.
For RRIRTRPPRLPRPRPRPEHYPRP the value was -0.0177; for RRIRGRPPRLPRPRPRPTIWPRP, 0.872; for RRIRCRPPRLPRPRPRPDWEPRP, -0.524.
For RRIRIRPPRLPRPRPRPRTTPRP the value was -0.25; for RRIRLRPPRLPRPRPRPRHKPRP, 0.258; for RRIRFRPPRLPRPRPRPEMDPRP, -0.00136.
RRIRFRPPRLPRPRPRPPVVPRP: the “shrunken log2 fold change” value came out at 0.159.
For RRIRVRPPRLPRPRPRPGQIPRP the value was -0.0586; for RRIRMRPPRLPRPRPRPDYTPRP, -0.0182.
Take RRIRERPPRLPRPRPRPRVDPRP: the “shrunken log2 fold change” value was 0.0531.
With RRIRGRPPRLPRPRPRPWIPPRP, the “shrunken log2 fold change” value is -0.429.
For RRIRQRPPRLPRPRPRPWNEPRP the value was -0.139; for RRIRLRPPRLPRPRPRPFQQPRP, 0.0873.
In the case of RRIRNRPPRLPRPRPRPDAQPRP, the “shrunken log2 fold change” value was -0.173.
For RRIRYRPPRLPRPRPRPHLTPRP the value was -0.466; for RRIRTRPPRLPRPRPRPDLPPRP, 0.0603.
For the sequence RRIRERPPRLPRPRPRPNYNPRP, the “shrunken log2 fold change” value was -1.1.
The figure for RRIRARPPRLPRPRPRPPCSPRP is 0.752; for RRIRGRPPRLPRPRPRPSEFPRP it is 0.122; for RRIRIRPPRLPRPRPRPCEPPRP it is -0.28.
For RRIRPRPPRLPRPRPRPQFAPRP the value was 0.218.
For RRIRPRPPRLPRPRPRPFSFPRP the value was -0.0166; for RRIRDRPPRLPRPRPRPNKFPRP, -0.293.
With RRIRPRPPRLPRPRPRPERVPRP, the “shrunken log2 fold change” value is 0.451.
The figure for RRIRSRPPRLPRPRPRPCQSPRP is -0.01; for RRIRERPPRLPRPRPRPLWIPRP it is -0.558.
Turning to RRIRERPPRLPRPRPRPVSHPRP, the “shrunken log2 fold change” value is -0.0904.
For the sequence RRIRGRPPRLPRPRPRPMISPRP, the “shrunken log2 fold change” value worked out at 1.18.
RRIRYRPPRLPRPRPRPRTDPRP: the “shrunken log2 fold change” value is -0.0428.
RRIRARPPRLPRPRPRPHLFPRP: the “shrunken log2 fold change” value came out at 0.117.
For RRIRERPPRLPRPRPRPWHMPRP the value was -0.0037; for RRIRTRPPRLPRPRPRPAMNPRP, -0.405; for RRIRWRPPRLPRPRPRPWYTPRP, -0.0512.
In the case of RRIRHRPPRLPRPRPRPKHKPRP, the “shrunken log2 fold change” value was -0.297.
The figure for RRIRRRPPRLPRPRPRPASFPRP is 0.309; for RRIRYRPPRLPRPRPRPRQLPRP it is -0.0472.
For RRIRCRPPRLPRPRPRPQGTPRP the value was -0.35; for RRIRSRPPRLPRPRPRPTQFPRP, 0.212; for RRIRHRPPRLPRPRPRPSARPRP, -0.223.
Take RRIRTRPPRLPRPRPRPELNPRP: the “shrunken log2 fold change” value stood at 0.195.
For RRIRIRPPRLPRPRPRPMCIPRP the value was -0.232.
For RRIRQRPPRLPRPRPRPWLMPRP the value was -0.102; for RRIRIRPPRLPRPRPRPGTMPRP, -0.112.
The figure for RRIRYRPPRLPRPRPRPGGHPRP is -0.278; for RRIRMRPPRLPRPRPRPQNRPRP it is -0.0361.
Regarding RRIRNRPPRLPRPRPRPVMPPRP, the “shrunken log2 fold change” value was found to be 0.267.
For RRIRMRPPRLPRPRPRPNTVPRP the value was -0.162.
For RRIRHRPPRLPRPRPRPEQPPRP the value was -0.0288.
In the case of RRIRFRPPRLPRPRPRPAIQPRP, the “shrunken log2 fold change” value was -0.102.
For the sequence RRIRSRPPRLPRPRPRPCGAPRP, the “shrunken log2 fold change” value came out at 0.327.
For RRIRERPPRLPRPRPRPGESPRP the value was -0.0304; for RRIRIRPPRLPRPRPRPQVTPRP, -0.4.
For RRIRTRPPRLPRPRPRPSDRPRP the value was -0.138.
For RRIRCRPPRLPRPRPRPLATPRP the value was 0.146.
Turning to RRIRFRPPRLPRPRPRPCDYPRP, the “shrunken log2 fold change” value was -0.112.
For RRIRNRPPRLPRPRPRPCWAPRP the value was -0.057.
The figure for RRIRCRPPRLPRPRPRPRPQPRP is 0.776; for RRIRTRPPRLPRPRPRPDTPPRP it is -0.193.
For RRIRERPPRLPRPRPRPRSYPRP the value was -0.0497; for RRIRDRPPRLPRPRPRPAIFPRP, 0.617.
As for RRIRFRPPRLPRPRPRPICMPRP, the “shrunken log2 fold change” value was -0.214.
With RRIRHRPPRLPRPRPRPPHQPRP, the “shrunken log2 fold change” value is -0.151.
For RRIRVRPPRLPRPRPRPTKNPRP the value was -0.00729; for RRIRDRPPRLPRPRPRPCYGPRP, -0.0515.
In the case of RRIRTRPPRLPRPRPRPGPMPRP, the “shrunken log2 fold change” value was 0.101.
The figure for RRIRWRPPRLPRPRPRPSLPPRP is -0.133.
RRIRKRPPRLPRPRPRPKQVPRP: the “shrunken log2 fold change” value is -0.176.
For the sequence RRIRHRPPRLPRPRPRPGEMPRP, the “shrunken log2 fold change” value is 0.257.
The figure for RRIRGRPPRLPRPRPRPSDLPRP is 0.0731; for RRIRIRPPRLPRPRPRPYNFPRP it is -0.99.
Turning to RRIRRRPPRLPRPRPRPNCCPRP, the “shrunken log2 fold change” value amounted to 0.0381.
RRIRIRPPRLPRPRPRPIDKPRP: the “shrunken log2 fold change” value is -0.364.
Consider RRIRVRPPRLPRPRPRPMLVPRP, for which the “shrunken log2 fold change” value is 0.0916.
For RRIRSRPPRLPRPRPRPDYGPRP the value was -0.0953.
With RRIRCRPPRLPRPRPRPPEHPRP, the “shrunken log2 fold change” value came out at 0.0824.
On to RRIRCRPPRLPRPRPRPHTVPRP, for which the “shrunken log2 fold change” value was -0.371.
Consider RRIRLRPPRLPRPRPRPMCWPRP, for which the “shrunken log2 fold change” value stood at 0.0663.
The figure for RRIRVRPPRLPRPRPRPRQNPRP is 0.00342; for RRIRHRPPRLPRPRPRPEPWPRP it is 0.171; for RRIRMRPPRLPRPRPRPFGRPRP it is -0.00674.
Regarding RRIRCRPPRLPRPRPRPETFPRP, the “shrunken log2 fold change” value was 0.07.
For RRIRHRPPRLPRPRPRPTMNPRP the value was -0.173; for RRIRMRPPRLPRPRPRPWYFPRP, -0.282; for RRIRKRPPRLPRPRPRPSRNPRP, -0.0207.
In the case of RRIRNRPPRLPRPRPRPPSQPRP, the “shrunken log2 fold change” value is 0.16.
For RRIRIRPPRLPRPRPRPGAQPRP the value was -0.0304.
RRIRIRPPRLPRPRPRPQMLPRP: the “shrunken log2 fold change” value is -0.633.
RRIRSRPPRLPRPRPRPREMPRP: the “shrunken log2 fold change” value was 0.159.
For RRIRERPPRLPRPRPRPIANPRP, the “shrunken log2 fold change” value stood at 0.158.
The figure for RRIRCRPPRLPRPRPRPRWYPRP is -0.134; for RRIRVRPPRLPRPRPRPPLRPRP it is 0.93; for RRIRERPPRLPRPRPRPCNKPRP it is -0.858.
In the case of RRIRMRPPRLPRPRPRPNFKPRP, the “shrunken log2 fold change” value is -0.0166.
The figure for RRIRHRPPRLPRPRPRPEIWPRP is -0.0396; for RRIRDRPPRLPRPRPRPGTMPRP it is -0.302.
On to RRIRQRPPRLPRPRPRPDAAPRP, for which the “shrunken log2 fold change” value is 1.08.
For the sequence RRIRPRPPRLPRPRPRPINNPRP, the “shrunken log2 fold change” value worked out at 0.81.
For RRIRERPPRLPRPRPRPGRMPRP the value was 0.0231.
In the case of RRIRSRPPRLPRPRPRPECPPRP, the “shrunken log2 fold change” value was -0.0934.
RRIRCRPPRLPRPRPRPTIGPRP: the “shrunken log2 fold change” value was -0.0746.
For the sequence RRIRARPPRLPRPRPRPMSAPRP, the “shrunken log2 fold change” value was determined as 0.361.
The figure for RRIRSRPPRLPRPRPRPEPVPRP is 1.44; for RRIRERPPRLPRPRPRPRQLPRP it is -0.0334; for RRIRARPPRLPRPRPRPGKKPRP it is -0.133.
On to RRIRDRPPRLPRPRPRPIAWPRP, for which the “shrunken log2 fold change” value was determined as 0.0633.
For RRIRGRPPRLPRPRPRPNEQPRP the value was -0.0722.
For RRIRARPPRLPRPRPRPRQNPRP the value was 0.723.
For RRIRQRPPRLPRPRPRPYETPRP the value was -0.427.
As to RRIRHRPPRLPRPRPRPADNPRP, the “shrunken log2 fold change” value was -0.306.
For RRIRIRPPRLPRPRPRPFPSPRP the value was -0.953; for RRIRSRPPRLPRPRPRPTHEPRP, -0.0435; for RRIRERPPRLPRPRPRPRTMPRP, -0.135.
On to RRIRTRPPRLPRPRPRPHMWPRP, for which the “shrunken log2 fold change” value is -0.302.
As to RRIRARPPRLPRPRPRPTTIPRP, the “shrunken log2 fold change” value is 0.0651.
Consider RRIRARPPRLPRPRPRPSYGPRP, for which the “shrunken log2 fold change” value is -0.282.
On to RRIRQRPPRLPRPRPRPWYFPRP, for which the “shrunken log2 fold change” value is -0.289.
With RRIRLRPPRLPRPRPRPRRYPRP, the “shrunken log2 fold change” value is -0.00737.
For the sequence RRIRCRPPRLPRPRPRPYNGPRP, the “shrunken log2 fold change” value was -0.216.
For RRIRSRPPRLPRPRPRPLLCPRP the value was -0.039; for RRIRFRPPRLPRPRPRPRPGPRP, 0.837; for RRIRVRPPRLPRPRPRPCGYPRP, 0.0222.
Take RRIRSRPPRLPRPRPRPHSKPRP: the “shrunken log2 fold change” value was -0.486.
The figure for RRIRVRPPRLPRPRPRPWWMPRP is -0.26; for RRIRQRPPRLPRPRPRPNFRPRP it is -0.0457.
